Reference: patent US20240245796A1 (PROFOUNDBIO US, published 2024)
Read-outs that look alike come from different tables or passages of the source.

Key:
[1] = target: T1, human FOLR1 extracellular domain linked to His tag (human, UniProt P15328 25-233, limits assumed); assay: BLI, global 1:1 fit (250 nM row)
T1 construct: extracellular domain; It may be the same product as m13; also called Hu-FRα; Hu-Ag; not shown: His tag

[2] = target: T2, human FOLR2 extracellular domain linked to His tag (human, UniProt P14207 17-230, limits assumed); assay: BLI, global 1:1 fit (250 nM row)
T2 construct: extracellular domain; Antigen in solution in BLI; also called Hu-FRb; not shown: His tag
T2 sequence (P14207 17-230 limits assumed): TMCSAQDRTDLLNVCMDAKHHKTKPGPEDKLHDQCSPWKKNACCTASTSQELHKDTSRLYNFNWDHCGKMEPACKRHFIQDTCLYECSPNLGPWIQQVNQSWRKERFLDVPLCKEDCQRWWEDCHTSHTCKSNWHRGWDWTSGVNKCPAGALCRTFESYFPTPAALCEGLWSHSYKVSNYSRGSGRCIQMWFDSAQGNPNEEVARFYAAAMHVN

[3] = target: T1, human FOLR1 extracellular domain linked …; assay: BLI, global 1:1 fit (500 nM row)
[4] = target: T2, human FOLR2 extracellular domain linked …; assay: BLI, global 1:1 fit (500 nM row)
[5] = target: T1, human FOLR1 extracellular domain linked …; assay: BLI, global 1:1 fit (15.6 nM row)
[6] = target: T3, cynomolgus monkey FOLR1 extracellular domain linked to His tag (cynomolgus monkey, UniProt A0A2K5U044 25-233); assay: BLI, global 1:1 fit (15.6 nM row)
T3 construct: extracellular domain; Antigen in solution in BLI; It may be the same product as m14; also called Cyno-Ag; not shown: His tag
T3 sequence (A0A2K5U044 entry or part of it): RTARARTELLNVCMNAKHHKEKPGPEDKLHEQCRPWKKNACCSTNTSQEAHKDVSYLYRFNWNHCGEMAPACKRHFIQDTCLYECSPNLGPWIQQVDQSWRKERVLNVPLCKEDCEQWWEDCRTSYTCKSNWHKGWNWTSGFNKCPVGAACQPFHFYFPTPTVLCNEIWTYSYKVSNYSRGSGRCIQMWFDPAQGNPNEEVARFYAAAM

[7] = target: T1, human FOLR1 extracellular domain linked …; assay: BLI, global 1:1 fit (62.5 nM row)
[8] = target: T3, cynomolgus monkey FOLR1 extracellular …; assay: BLI, global 1:1 fit (62.5 nM row)
[9] = target: T1, human FOLR1 extracellular domain linked …; assay: BLI, Ag 500 nM over Ab on anti-hIgG Fc tip
[10] = target: T2, human FOLR2 extracellular domain linked …; assay: BLI, Ag 500 nM over Ab on anti-hIgG Fc tip
[11] = target: T1, human FOLR1 extracellular domain linked …; assay: BLI, Ag 500 nM over Ab on anti-hIgG Fc tip; remark: listed apart in the source
[12] = target: T3, cynomolgus monkey FOLR1 extracellular …; assay: BLI, Ag 500 nM over Ab on anti-hIgG Fc tip
[13] = target: T4, mouse FOLR1 extracellular domain linked to His tag (mouse, UniProt P35846 25-232, limits assumed); assay: BLI, Ag 500 nM over Ab on anti-hIgG Fc tip
T4 construct: extracellular domain; Antigen in solution in BLI; also called Mouse-Ag; not shown: His tag
T4 sequence (P35846 25-232 limits assumed): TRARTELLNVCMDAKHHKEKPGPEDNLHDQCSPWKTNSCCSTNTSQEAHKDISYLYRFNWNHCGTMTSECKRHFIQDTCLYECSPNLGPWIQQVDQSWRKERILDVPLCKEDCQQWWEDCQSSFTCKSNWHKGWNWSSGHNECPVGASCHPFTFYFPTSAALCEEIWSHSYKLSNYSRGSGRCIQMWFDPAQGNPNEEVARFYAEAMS

[14] = target: T2, human FOLR2 extracellular domain linked …; assay: BLI, Ag 7.82 nM; * = below range of quantification
[15] = target: T5, human FOLR3 extracellular domain linked to His tag (human, UniProt P41439 23-245, limits assumed); assay: BLI, Ag 7.82 nM; * = below range of quantification
T5 construct: extracellular domain; Antigen in solution in BLI; also called Hu-FRg; not shown: His tag
T5 sequence (P41439 23-245 limits assumed): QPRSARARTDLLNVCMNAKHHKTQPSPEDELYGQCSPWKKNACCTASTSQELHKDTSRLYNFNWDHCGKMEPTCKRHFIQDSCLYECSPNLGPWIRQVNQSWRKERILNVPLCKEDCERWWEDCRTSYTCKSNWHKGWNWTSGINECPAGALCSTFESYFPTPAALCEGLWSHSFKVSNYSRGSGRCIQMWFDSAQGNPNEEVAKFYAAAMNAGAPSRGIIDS

[16] = target: T5, human FOLR3 extracellular domain linked …; assay: BLI, global 1:1 fit (250 nM row); all responses below quantification
[17] = target: T5, human FOLR3 extracellular domain linked …; assay: BLI, global 1:1 fit (31.3 nM row); all responses below quantification
[18] = target: T6, rat FOLR1 extracellular domain linked to His tag (rat); assay: BLI, global 1:1 fit (7.82 nM row); all responses below quantification
T6 construct: extracellular domain; Antigen in solution in BLI; also called Rat-Ag

[19] = target: T4, mouse FOLR1 extracellular domain linked …; assay: BLI, global 1:1 fit (250 nM row); only the 500 nM response quantifiable
[20] = target: T4, mouse FOLR1 extracellular domain linked …; assay: BLI, global 1:1 fit (500 nM row); only the 500 nM response quantifiable
[21] = target: T4, mouse FOLR1 extracellular domain linked …; assay: BLI, global 1:1 fit (62.5 nM row); only the 500 nM response quantifiable
[22] = target: T4, mouse FOLR1 extracellular domain linked …; assay: BLI, global 1:1 fit (7.82 nM row); only the 500 nM response quantifiable

T1 sequence (P15328 25-233 limits assumed): as the sequence (A0A2K5U044 entry or part of it) above, with T2I, R4W, K37R, P146A, Y171H counted along it

B1: F131 (antibody, V domains shown)
VH: EVQLLESGGGVVQPGRSLRLSCAASGFTFSSYGMHWVRQAPGKGLEWVAVISYDGSNKYYADSVKGRFTISRANSKNTLYLQMNSLRAEDTAVYYCARPRAYYGAYGSSFDYWGQGTQVTVSS
VL: EIVMTQSPSSVSASVGDRVAITCRASQGISSWLAWYQQKPGKAPKLLIYAASSLQSGVPSRFSGSGSGTDFTLTISSLQPEDFATYYCQQSYSTPLTFGGGTKVDIK
notes: also called clone F131; F131 mAb
- Kd [1]: 5.3 nM
- koff [1]: 0.0012 s⁻¹
- kon [1]: 226000 M⁻¹ s⁻¹
- Kd [2]: 142 nM
- koff [2]: 0.0784 s⁻¹
- kon [2]: 552000 M⁻¹ s⁻¹
- koff [3]: 0.0012 s⁻¹
- kon [3]: 226000 M⁻¹ s⁻¹
- Kd [4]: 142 nM
- koff [4]: 0.0784 s⁻¹
- kon [4]: 552000 M⁻¹ s⁻¹
- Kd [5]: 1.53 nM
- koff [5]: 0.000338 s⁻¹
- kon [5]: 221000 M⁻¹ s⁻¹
- Kd [6]: 8.15 nM
- koff [6]: 0.00157 s⁻¹
- kon [6]: 193000 M⁻¹ s⁻¹
- Kd [7]: 1.53 nM
- koff [7]: 0.000338 s⁻¹
- kon [7]: 221000 M⁻¹ s⁻¹
- Kd [8]: 8.15 nM
- koff [8]: 0.00157 s⁻¹
- kon [8]: 193000 M⁻¹ s⁻¹
- Response [9]: 0.192
- Response [10]: 0.037
- Response [11]: 0.181
- Response [12]: 0.219
- Response [13]: 0.0167
- Response [14]: 0.0011
- Response [15]: 0.00103
- koff [16]: 0.217 s⁻¹
- kon [16]: 1660 M⁻¹ s⁻¹
- koff [17]: 0.217 s⁻¹
- kon [17]: 1660 M⁻¹ s⁻¹
- koff [18]: 1.03 s⁻¹
- kon [18]: 5490 M⁻¹ s⁻¹
- Kd [19]: 2960 nM
- koff [19]: 0.301 s⁻¹
- kon [19]: 102000 M⁻¹ s⁻¹
- koff [20]: 0.301 s⁻¹
- kon [20]: 102000 M⁻¹ s⁻¹
- Kd [21]: 2960 nM
- koff [21]: 0.301 s⁻¹
- kon [21]: 102000 M⁻¹ s⁻¹
- Kd [22]: 2960 nM
- koff [22]: 0.301 s⁻¹
- kon [22]: 102000 M⁻¹ s⁻¹

B2: F131-LD038 (antibody, V domains shown)
VH: B1 VH
VL: B1 VL
modifications: drug-linker LD038 (PB038, maleimide-PEG unit-Val-Cit-PAB-exatecan) on cysteines freed by TCEP reduction; positions not given
notes: Antibody-drug conjugate of F131 (IgG1) with LD038; also called anti-huFOLR-1 conjugate F131-LD038; F131-038
- Kd [1]: 4.79 nM
- koff [1]: 0.00121 s⁻¹
- kon [1]: 252000 M⁻¹ s⁻¹
- Kd [2]: 84.4 nM
- koff [2]: 0.0813 s⁻¹
- kon [2]: 963000 M⁻¹ s⁻¹
- Kd [3]: 4.79 nM
- koff [3]: 0.00121 s⁻¹
- kon [3]: 252000 M⁻¹ s⁻¹
- Kd [4]: 84.4 nM
- koff [4]: 0.0813 s⁻¹
- kon [4]: 963000 M⁻¹ s⁻¹
- Kd [5]: 4.8 nM
- koff [5]: 0.00107 s⁻¹
- kon [5]: 224000 M⁻¹ s⁻¹
- Kd [6]: 8.82 nM
- koff [6]: 0.0016 s⁻¹
- kon [6]: 181000 M⁻¹ s⁻¹
- Kd [7]: 4.8 nM
- koff [7]: 0.00107 s⁻¹
- kon [7]: 224000 M⁻¹ s⁻¹
- Kd [8]: 8.82 nM
- koff [8]: 0.0016 s⁻¹
- kon [8]: 181000 M⁻¹ s⁻¹
- Response [9]: 0.222
- Response [10]: 0.0427
- Response [11]: 0.205
- Response [12]: 0.186
- Response [13]: 0.0125
- Response [14]: 0.002
- Response [15]: 0.0004
- koff [16]: 0.233 s⁻¹
- koff [17]: 0.233 s⁻¹
- koff [18]: 0.224 s⁻¹
- kon [18]: 2.64e+06 M⁻¹ s⁻¹
- Kd [19]: 2870 nM
- koff [19]: 0.266 s⁻¹
- kon [19]: 92600 M⁻¹ s⁻¹
- Kd [20]: 2870 nM
- koff [20]: 0.266 s⁻¹
- kon [20]: 92600 M⁻¹ s⁻¹
- Kd [21]: 2870 nM
- koff [21]: 0.266 s⁻¹
- kon [21]: 92600 M⁻¹ s⁻¹
- Kd [22]: 2870 nM
- koff [22]: 0.266 s⁻¹
- kon [22]: 92600 M⁻¹ s⁻¹
